The values that follow come from patent US7872117.

For the test, the target named is murine c-Met polypeptide (Met receptor as expressed on DA3 mouse mammary adenocarcinoma cells) (mouse) (UniProt P16056). In words: cell-based or functional assay.

On to “Hepatocyte growth factor/scatter factor (HGF/SF) (ligand)”, for which the in vitro invasion through Matrigel (invading cells per filter, DA3 cells, HGF/SF 100 ng/ml) (cells per filter) amounted to 80.
